Source: patent US20160184454A1, “RAB7L1 INTERACTS WITH LRRK2 TO MODIFY INTRANEURONAL PROTEIN SORTING AND PARKINSON'S DISEASE RISK” (THE TRUSTEES OF COLUMBIA UNIVERSITY IN THE CITY OF NEW YORK, priority 2013, published 2016)

B1: SLC45A3: PARK16 locus gene overexpression vector (protein, UniProt Q96JT2 1-553, looked up)
Solute carrier family 45 …: MVQRLWVSRLLRHRKAQLLLVNLLTFGLEVCLAAGITYVPPLLLEVGVEEKFMTMVLGIGPVLGLVCVPLLGSASDHWRGRYGRRRPFIWALSLGILLSLFLIPRAGWLAGLLCPDPRPLELALLILGVGLLDFCGQVCFTPLEALLSDLFRDPDHCRQAYSVYAFMISLGGCLGYLLPAIDWDTSALAPYLGTQEECLFGLLTLIFLTCVAATLLVAEEAALGPTEPAEGLSAPSLSPHCCPCRARLAFRNLGALLPRLHQLCCRMPRTLRRLFVAELCSWMALMTFTLFYTDFVGEGLYQGVPRAEPGTEARRHYDEGVRMGSLGLFLQCAISLVFSLVMDRLVQRFGTRAVYLASVAAFPVAAGATCLSHSVAVVTASAALTGFTFSALQILPYTLASLYHREKQVFLPKYRGDTGGASSEDSLMTSFLPGPKPGAPFPNGHVGAGGSGLLPPPPALCGASACDVSVRVVVGEPTEARVVPGRGICLDLAILDSAFLLSQVAPSLFMGSIVQLSQSVTAYMVSAAGLGLVAIYFATQVVFDKSDLAKYSA
B2: RAB5A: Rab family member expression vector (protein, UniProt P20339 1-215, looked up)
Ras-related protein Rab-5A: MASRGATRPNGPNTGNKICQFKLVLLGESAVGKSSLVLRFVKGQFHEFQESTIGAAFLTQTVCLDDTTVKFEIWDTAGQERYHSLAPMYYRGAQAAIVVYDITNEESFARAKNWVKELQRQASPNIVIALSGNKADLANKRAVDFQEAQSYADDNSLLFMETSAKTSMNVNEIFMAIAKKLPKNEPQNPGANSARGRGVDLTEPTQPTRNQCCSN
B3: PM20D1: PARK16 locus gene overexpression vector (protein, UniProt Q6GTS8 26-502, looked up)
N-fatty-acyl-amino acid …: MGPRSGEHQRASRIPSQFSKEERVAMKEALKGAIQIPTVTFSSEKSNTTALAEFGKYIHKVFPTVVSTSFIQHEVVEEYSHLFTIQGSDPSLQPYLLMAHFDVVPAPEEGWEVPPFSGLERDGIIYGRGTLDDKNSVMALLQALELLLIRKYIPRRSFFISLGHDEESSGTGAQRISALLQSRGVQLAFIVDEGGFILDDFIPNFKKPIALIAVSEKGSMNLMLQVNMTSGHSSAPPKETSIGILAAAVSRLEQTPMPIIFGSGTVVTVLQQLANEFPFPVNIILSNPWLFEPLISRFMERNPLTNAIIRTTTALTIFKAGVKFNVIPPVAQATVNFRIHPGQTVQEVLELTKNIVADNRVQFHVLSAFDPLPVSPSDDKALGYQLLRQTVQSVFPEVNITAPVTSIGNTDSRFFTNLTTGIYRFYPIYIQPEDFKRIHGVNEKISVQAYETQVKFIFELIQNADTDQEPVSHLHKL
B4: RAB3A: Rab family member expression vector (protein, UniProt P20336 1-220, looked up)
Ras-related protein Rab-3A: MASATDSRYGQKESSDQNFDYMFKILIIGNSSVGKTSFLFRYADDSFTPAFVSTVGIDFKVKTIYRNDKRIKLQIWDTAGQERYRTITTAYYRGAMGFILMYDITNEESFNAVQDWSTQIKTYSWDNAQVLLVGNKCDMEDERVVSSERGRQLADHLGFEFFEASAKDNINVKQTFERLVDVICEKMSESLDTADPAVTGAKQGPQLSDQQVPPHQDCAC
B5: NUCKS1: PARK16 locus gene overexpression vector (protein, UniProt Q9H1E3 1-243, looked up)
Nuclear ubiquitous casein and …: MSRPVRNRKVVDYSQFQESDDADEDYGRDSGPPTKKIRSSPREAKNKRRSGKNSQEDSEDSEDKDVKTKKDDSHSAEDSEDEKEDHKNVRQQRQAASKAASKQREMLMEDVGSEEEQEEEDEAPFQEKDSGSDEDFLMEDDDDSDYGSSKKKNKKMVKKSKPERKEKKMPKPRLKATVTPSPVKGKGKVGRPTASKASKEKTPSPKEEDEEPESPPEKKTSTSPPPEKSGDEGSEDEAPSGED

Tested on: rat primary cortical neurons
Assay: Neurite length assay in transfected primary cortical neuron cultures
Format: cell-based
Conditions: co-transfection with LRRK2 G2019S (0.5 μg/well); test vector 1 μg/well
Excerpt: As 5 candidate genes are present within the PARK16 locus (SLC45A3, NUCKS, RAB7L1, SLC41A1, and PM20D1), each of the genes were experimentally screened for a functional interaction with LRRK2 (FIG. 2A). A previously-described primary rat neuron in vitro culture model was used, in which transient expression of familial PD-associated LRRK2 G2019S or R1441C mutant alleles leads to a marked reduction in neurite process length (MacLeod et al., 2006). […] RAB7L1 is a small cytosolic GTPase, structurally distinct from RAB7 despite its name (also known as RAB29) (Shimizu et al., 1997). […] But the function of RAB7L1 in CNS neurons remains unknown. Orthologues of RAB7L1 in other organisms, including C. elegans Glo-1 and Drosophila melanogaster Lighloid, have been implicated in trafficking to lysosome-related organelles (Hermann et al., 2005) and in the regulation of neurite process length (Grill et al., 2007), reminiscent of LRRK2 mutant phenotypes (MacLeod et al., 2006). Thus this gene was of particular interest.
Sprague-Dawley rat or mouse PI primary dissociated cortical cultures were prepared and transfected essentially as described (Xia et al., 1996) with the following modifications: cells were plated at high density, approximately 250,000 cells/cm2, in 24-well plates with 500 ul medium/well. Culture medium used for plating cells was Neurobasal-A supplemented with 2% B-27 and 10% FBS. At 1 day after plating, medium was changed to reduced serum (1% FBS+added antimitotic agents: 70 μM uridine and 25 μM 5-fluorodeoxyuridine) and replaced weekly thereafter; for transfections no DMSO was added to the transfection mixture, cells were not subjected to glycerol shock, and a total of 3 μg plasmid DNA was used per well. Cells were fixed in 4% PFA and immunostained with mouse α-RAB7L1 (Santa Cruz, 1:100), and rabbit monoclonal α-LRRK2 (Michal J. Fox Foundation MJFF4, 1:100), then with appropriate fluorescent secondaries (Jackson, 1:1000-2000). Neurite length and neurite puncta (defined as swellings greater than 2 um in diameter) were counted for at least 20 neurons per condition. Mean puncta number per neuron was normalized to total average neurite length versus wild-type LRRK2 transfected cells. Fluorescent microscopy was performed using a Nikon TE 2000-S microscope and a Zeiss LSM510 Meta confocal microscope. Images were analyzed using Image-Pro Plus (Mediacybernetics) software version 5.1.0.20.

| Molecule | LRRK2 mutation-induced neurite length phenotype |
| --- | --- |
| SLC41A1: PARK16 locus gene overexpression vector | failed to rescue |
| B1 | failed to rescue |
| B2 | failed to rescue the phenotype |
| B3 | failed to rescue |
| B4 | failed to rescue the phenotype |
| B5 | failed to rescue |
